{
  "source": "patent US20240342704A1",
  "about": "(BERKELEY LIGHTS, published 2024)",
  "target": "T1, HLA-A*02:01 MHC Class I complex (biotinylated) (human, biotinylated)",
  "T1 construct": "The MHC molecule as the partner of the peptide in the groove; It was captured on streptavidin DynaBeads; also called pHLA; pMHC",
  "assay": "pMHC on streptavidin beads held in T cell culture media at 37 C for 0-48 h; W6/32-APC MFI by flow cytometry fitted to an exponential decay",
  "method": "To wells of a 96-well, round-bottom microplate, 0.2 mL of T Cell Culture Media (Advanced RPMI, 10% Human AB Serum, 1 mM GlutaMax) was added and equilibrated to 37° C. in a standard tissue culture incubator. To three wells each, four microliters of each pHLA-beads was added to a well. The process of adding beads to wells was repeated at time intervals resulting in beads that were held in the media at 37° C. for 48, 32, 24, 16, 8, 4, 2, and 1 hr. The plate was centrifuged at 400 g for 5 minutes, and the media removed by flicking the plate. A sample of beads held at 4° C. for the duration of the time course was then added to three wells to create the 0 hr time point.\nAn APC-conjugated, conformationally sensitive antibody which only recognizes pMHC molecules in the folded, complex conformation (Clone W6/32, Biolegend) was then added to each well. The antibody was diluted 50-fold from the manufacturer stock into Assay Buffer, and 0.05 mL of antibody mixture was added to each well. […]\nAntibody binding to the beads was then detected on a FACSCelesta with High-Throughput Sampler (BD Biosciences). […] Approximately 25,000 bead events were recorded for each sample. The Median Fluorescence Intensity (MFI) in the APC channel for the pHLA-beads in each sample was then recorded. […] The half-lives for the pHLA complexes were then calculated from the fitted decay constant.",
  "data": [
    {"binder": "SLYSYFQKV (Synthetic 9-mer peptide, dissolved in DMSO and diluted in PBS for the exchange reaction; also called Immunogenic SLC45A2-derived peptide; SLC45A2 antigen)", "note": "[SLC45A2-derived peptide antigen SLYSYFQKV (SEQ ID NO: 5)]", "values": [
      {"measurement": "half-life", "value": "~17", "unit": "h"}
    ]},
    {"binder": "SLLPIMWQLY (Synthetic 10-mer peptide; also called Non-Immunogenic TCL1-derived peptide)", "note": "[TCL1-derived peptide antigen SLLPIMWQLY (SEQ ID NO: 6)]", "values": [
      {"measurement": "half-life", "value": "~0.5", "unit": "h"}
    ]}
  ]
}
